For four molecules, Kd results are on record in article PMC6195595 (2018).

What all share (assay): ITC
On the technique in general: ITC needs no label: the signal is the heat of the interaction.

The target in assay [1] is Kj12B-CDDshort R1565E peptide (Xenorhabdus stockiae KJ12.1, R1565E (stands in the printed letters)).
The target of assay [2] is Kj12B-^CDD_(short) peptide L1564A (Xenorhabdus stockiae KJ12.1, L1564A (stands in the printed letters)).
The target in assay [3] is Kj12B-^CDD_(short) peptide G1566A (printed as G1565 replaced with alanine) (Xenorhabdus stockiae KJ12.1).
For assay [4], the target named is T1, Kj12C-^NDD Q26K, E28A (modified Kj12C-^NDD) (Xenorhabdus stockiae KJ12.1).
T1 chain: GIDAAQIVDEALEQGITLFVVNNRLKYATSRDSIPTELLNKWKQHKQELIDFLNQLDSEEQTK

The target of assay [5] is Kj12A-^CDD peptide (C-terminal docking domain of Kj12A) (Xenorhabdus stockiae KJ12.1).

Substitutions are numbered along the chain they refer to. Where only a bound is given, the exact number is not on record here.

B1: Kj12C-^NDD (N-terminal docking domain of Kj12C) (domain or fragment)
chain: T1 chain with K26Q, A28E
What is called Kd is the constant that tells how readily two partners part at equilibrium. Read a high Kd as a looser complex. B1: the Kd in assay [1], in assay [2] and in assay [3] was greater than 100 µM in each case.

B2: Kj12B-^CDD peptide (C-terminal docking domain of Kj12B) (peptide)
peptide: LLKEKRKHFQAEQNSSQEYLRGEI
modifications: Limits taken from PDB 6EWU (isolated NDD). Residue 1 is Gly as in the entity, possibly a SUMO-cleavage/cloning replacement of the native Met. In vivo, the variant was in full-length Kj12C.
As to B2, binding in assay [4] was put at a Kd of 80 µM.

B3: Kj12A-^NDD (N-terminal docking domain of Kj12A) (domain or fragment)
chain: MKNAAQIVDEALNQGITLFVADNRLQYETSRDNIPEELLNEWKYYRQDLIDFLQQLDAKEETQ
B3 returned a Kd in assay [5] greater than 100 µM.

B4: Kj12B-^NDD (N-terminal docking domain of Kj12B) (domain or fragment)
chain: MKNAAKIVNEALNQGITLFVSDNKLKYKTNRDSIPSELLEEWKQHKQELIDFLTQLESEEES
The molecule B4 registered a Kd in assay [5] greater than 100 µM.
